Assay results: publication PMC12255305, “A transfer RNA methyltransferase with an unusual domain composition catalyzes 2′-O-methylation at position 6 in tRNA” (Nucleic Acids Research, 2025)
Each block holds one molecule with its values, some of them ahead of it.

Assays:
[1] = target: SPOUT catalytic domain of TrmTS (lacks NFLD and THUMP domain, residues 2-151) (Thermococcus kodakarensis) (UniProt Q5JGM1); test: SEC; Superdex 200 10/300, room temperature; 150 ug truncated TrmTS heated at 50°C for 10 min, run in buffer C (50 mM Tris-HCl pH 8.0, 500 mM KCl, 300 mM ammonium sulfate); size standards 29-150 kDa
purified protein = substrate: C[S+](CC[C@H](N)C(=O)O)C[C@H]1O[C@@H](n2cnc3c(N)ncnc32)[C@H](O)[C@@H]1O; test: purified protein; conditions: 35 μM T. kodakarensis tRNA-Trp transcript, 3 μM enzyme (not fully steady-state), 5 mM MgCl2, 300 mM KCl, pH 7.6, 75°C, mixture of unlabelled and 3H-labelled compound :1
[2] = target: the molecule itself; test: SEC; Superdex 200 10/300, room temperature; 200 ug full-length TrmTS heated at 75°C for 10 min, then run in buffer SEC (50 mM sodium phosphate pH 8.0, 500 mM KCl, 6 mM 2-mercaptoethanol, 5% glycerol); sample buffer also held 0.1% Triton X-100; size standards 29-150 kDa
[3] = target: T1, TrmTS (TK1257 gene product) (Thermococcus kodakarensis KUW1, UniProt Q5JGM1 1-355); test: competition (inhibition of methylation of wild-type tRNA-Trp transcript); SAM; competitor against wild-type tRNA-Trp transcript; Inhibition assay conditions (buffer, salt, pH, temperature) not given in the material; conditions: protein: recombinant; tags: none (untagged; native start and stop codons in pET30a); chain copies: 2; tRNA cloverleaf
T1 sequence: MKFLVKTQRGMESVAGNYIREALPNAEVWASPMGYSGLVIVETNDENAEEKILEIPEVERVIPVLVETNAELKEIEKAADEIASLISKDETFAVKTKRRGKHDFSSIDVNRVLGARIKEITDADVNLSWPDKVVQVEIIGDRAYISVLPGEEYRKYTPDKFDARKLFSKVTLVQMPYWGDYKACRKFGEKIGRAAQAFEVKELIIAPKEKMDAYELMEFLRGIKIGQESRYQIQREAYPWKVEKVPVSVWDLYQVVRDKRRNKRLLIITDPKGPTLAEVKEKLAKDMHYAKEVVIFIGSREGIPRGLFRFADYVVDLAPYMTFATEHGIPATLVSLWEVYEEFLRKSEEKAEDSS

stoichiometry N [1]: 2
Molecule: SPOUT catalytic domain of TrmTS (lacks NFLD and THUMP domain, residues 2-151) (from UniProt Q5JGM1 152-355) (domain or fragment)

B1: TrmTS (TK1257 gene product), full-length wild type (enzyme, Thermococcus kodakarensis, UniProt Q5JGM1 1-355, looked up)
chain: MKFLVKTQRGMESVAGNYIREALPNAEVWASPMGYSGLVIVETNDENAEEKILEIPEVERVIPVLVETNAELKEIEKAADEIASLISKDETFAVKTKRRGKHDFSSIDVNRVLGARIKEITDADVNLSWPDKVVQVEIIGDRAYISVLPGEEYRKYTPDKFDARKLFSKVTLVQMPYWGDYKACRKFGEKIGRAAQAFEVKELIIAPKEKMDAYELMEFLRGIKIGQESRYQIQREAYPWKVEKVPVSVWDLYQVVRDKRRNKRLLIITDPKGPTLAEVKEKLAKDMHYAKEVVIFIGSREGIPRGLFRFADYVVDLAPYMTFATEHGIPATLVSLWEVYEEFLRKSEEKAEDSS
notes: TK1257 gene product (TrmTS), tRNA 2'-O-methyltransferase of Thermococcus kodakarensis strain KUW1, 355 amino acids; NFLD, THUMP, linker and SPOUT domains; gene amplified from the ATG to the stop codons; Cloned between NdeI and BamHI of pET30a with its own stop codons; also called full-length TrmTS; wild-type TrmTS; source: E. coli BL21 (DE3) Rosetta 2, purified (75°C heat step, HiTrap Q HP, …)
Km (purified protein): 23 µM | stoichiometry N [2]: 4

B2: TrmTS (TK1257 gene product) (Thermococcus kodakarensis KOD1; K155A) (protein)
chain: MKFLVKTQRGMESVAGNYIREALPNAEVWASPMGYSGLVIVETNDENAEEKILEIPEVERVIPVLVETNAELKEIEKAADEIASLISKDETFAVKTKRRGKHDFSSIDVNRVLGARIKEITDADVNLSWPDKVVQVEIIGDRAYISVLPGEEYRAYTPDKFDARKLFSKVTLVQMPYWGDYKACRKFGEKIGRAAQAFEVKELIIAPKEKMDAYELMEFLRGIKIGQESRYQIQREAYPWKVEKVPVSVWDLYQVVRDKRRNKRLLIITDPKGPTLAEVKEKLAKDMHYAKEVVIFIGSREGIPRGLFRFADYVVDLAPYMTFATEHGIPATLVSLWEVYEEFLRKSEEKAEDSS
Km (purified protein): 44 ± 7.6 µM

B3: TrmTS (TK1257 gene product) (Thermococcus kodakarensis KOD1; E301A) (protein)
chain: MKFLVKTQRGMESVAGNYIREALPNAEVWASPMGYSGLVIVETNDENAEEKILEIPEVERVIPVLVETNAELKEIEKAADEIASLISKDETFAVKTKRRGKHDFSSIDVNRVLGARIKEITDADVNLSWPDKVVQVEIIGDRAYISVLPGEEYRKYTPDKFDARKLFSKVTLVQMPYWGDYKACRKFGEKIGRAAQAFEVKELIIAPKEKMDAYELMEFLRGIKIGQESRYQIQREAYPWKVEKVPVSVWDLYQVVRDKRRNKRLLIITDPKGPTLAEVKEKLAKDMHYAKEVVIFIGSRAGIPRGLFRFADYVVDLAPYMTFATEHGIPATLVSLWEVYEEFLRKSEEKAEDSS
Km (purified protein): 21 ± 5.1 µM

B4: tRNA-Trp C6G-G67C transcript (G6-C67) (structured_RNA)
RNA: GGGGGGGUGGUGUAGCCUGGUCCAUCAUCGCGGGCUCCAGACCCGCGGACCGGGGUUCAAAUCCCCGCCCCCCCACCA
IC50 [3]: ~30 µM
